According to article PMC6753478 (Nucleic Acids Research, 2019):

Target: T1, FLAG-UPF1 (UniProt Q92900-2 1-1118)
T1 sequence (looked up): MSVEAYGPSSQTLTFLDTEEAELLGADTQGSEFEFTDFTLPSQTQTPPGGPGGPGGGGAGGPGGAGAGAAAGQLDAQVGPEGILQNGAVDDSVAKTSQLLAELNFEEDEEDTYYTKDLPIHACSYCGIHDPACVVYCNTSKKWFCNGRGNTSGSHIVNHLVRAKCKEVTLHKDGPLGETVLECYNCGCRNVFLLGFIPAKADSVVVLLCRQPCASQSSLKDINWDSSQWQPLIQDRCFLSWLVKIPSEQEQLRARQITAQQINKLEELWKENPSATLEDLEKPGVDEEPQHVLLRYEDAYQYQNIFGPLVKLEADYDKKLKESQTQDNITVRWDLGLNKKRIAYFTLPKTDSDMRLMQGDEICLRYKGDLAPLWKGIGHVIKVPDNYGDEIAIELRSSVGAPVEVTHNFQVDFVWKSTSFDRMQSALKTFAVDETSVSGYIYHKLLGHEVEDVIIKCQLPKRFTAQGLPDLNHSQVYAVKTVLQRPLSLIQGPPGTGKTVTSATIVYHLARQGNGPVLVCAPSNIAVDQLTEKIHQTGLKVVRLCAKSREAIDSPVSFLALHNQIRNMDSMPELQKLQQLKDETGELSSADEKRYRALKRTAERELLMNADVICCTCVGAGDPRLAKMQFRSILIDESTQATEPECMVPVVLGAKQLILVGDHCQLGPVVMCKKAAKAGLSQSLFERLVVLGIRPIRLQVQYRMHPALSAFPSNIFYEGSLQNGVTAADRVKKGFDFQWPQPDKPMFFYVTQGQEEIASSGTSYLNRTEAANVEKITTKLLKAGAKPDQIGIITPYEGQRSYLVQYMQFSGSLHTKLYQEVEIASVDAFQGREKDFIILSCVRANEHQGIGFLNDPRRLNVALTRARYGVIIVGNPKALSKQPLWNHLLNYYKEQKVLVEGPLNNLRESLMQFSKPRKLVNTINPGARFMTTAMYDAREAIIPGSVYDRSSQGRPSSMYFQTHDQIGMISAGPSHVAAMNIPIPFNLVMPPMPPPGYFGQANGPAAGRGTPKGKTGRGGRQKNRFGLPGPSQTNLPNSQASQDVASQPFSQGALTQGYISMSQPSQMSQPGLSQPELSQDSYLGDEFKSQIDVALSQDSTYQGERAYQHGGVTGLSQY
Test: co-IP

B1: staufen1 (STAU1), endogenous (natural protein, human (endogenous in HEK293T), UniProt O95793 1-577, looked up)
chain: MSQVQVQVQNPSAALSGSQILNKNQSLLSQPLMSIPSTTSSLPSENAGRPIQNSALPSASITSTSAAAESITPTVELNALCMKLGKKPMYKPVDPYSRMQSTYNYNMRGGAYPPRYFYPFPVPPLLYQVELSVGGQQFNGKGKTRQAAKHDAAAKALRILQNEPLPERLEVNGRESEEENLNKSEISQVFEIALKRNLPVNFEVARESGPPHMKNFVTKVSVGEFVGEGEGKSKKISKKNAAIAVLEELKKLPPLPAVERVKPRIKKKTKPIVKPQTSPEYGQGINPISRLAQIQQAKKEKEPEYTLLTERGLPRRREFVMQVKVGNHTAEGTGTNKKVAKRNAAENMLEILGFKVPQAQPTKPALKSEEKTPIKKPGDGRKVTFFEPGSGDENGTSNKEDEFRMPYLSHQQLPAGILPMVPEVAQAVGVSQGHHTKDFTRAAPNPAKATVTAMIARELLYGGTSPTAETILKNNISSGHVPHGPLTRPSEQLDYLSRVQGFQVEYKDFPKNNKNEFVSLINCSSQPPLISHGIGKDVESCHDMAALNILKLLSELDQQSTEMPRTGNGPMSVCGRC
  fold change of the association after IR exposure, against untreated cells: 3.1 fold
